# ± gives the uncertainty stated by the source.
# B1: Steroid hormone receptor ERR2, residues 100 to 176; numbered along this chain, O95718 (parent)
# chain: KRLCLVCGDIASGYHYGVASCEACKAFFKRTIQGNIEYSCPATNECEITKRRRKSCQACRFMKCLKVGMLKEGVRLD
# B2: Transcriptional regulator ERG, residues 117 to 197; numbered along this chain, P11308 (parent)
# chain: NMTTNERRVIVPADPTLWSTDHVRQWLEWAVKEYGLPDVNILLFQNIDGKELCKMTKDDFQRLTPSYNADILLSHLHYLRE
# Variants of: B1
# Assay: abundance fitness (aPCA) (normalised: wild type 0, dead -1); higher = more abundant; growth selection in yeast, the domain comes from the species named
# Conditions: Homo sapiens
row,Variant,abundance fitness
1,KRLCLVCGDIASGYHYGVASCEACKAFFKRTIQGNIEYSCPATNECEITKRRRKSCQACRFMKCLKVGMLKEGVYLD,-0.102 ± 0.095
2,KRLCLVCGDIASGYHYGVASCEACKAFFKRTIQGNIEYSCPATNECEITKRRRKSCQACRFMKCLKVGMLKEGVWLD,-0.1 ± 0.052
3,KRLCLVCGDIASGYHYGVASCEACKAFFKRTIQGNIEYSCPATNECEITKRRRKSCQACRFMKCLKVGMLKEGVVLD,0.002 ± 0.042

# Variants of: B2
# Assay: as above
# Conditions: Homo sapiens
row,Variant,abundance fitness
1,NSTTNERRVIVPADPTLWSTDHVRQWLEWAVKEYGLPDVNILLFQNIDGKELCKMTKDDFQRLTPSYNADILLSHLHYLRE,-0.105 ± 0.051
2,NKTTNERRVIVPADPTLWSTDHVRQWLEWAVKEYGLPDVNILLFQNIDGKELCKMTKDDFQRLTPSYNADILLSHLHYLRE,-0.144 ± 0.059
3,NNTTNERRVIVPADPTLWSTDHVRQWLEWAVKEYGLPDVNILLFQNIDGKELCKMTKDDFQRLTPSYNADILLSHLHYLRE,-0.028 ± 0.075
4,NATTNERRVIVPADPTLWSTDHVRQWLEWAVKEYGLPDVNILLFQNIDGKELCKMTKDDFQRLTPSYNADILLSHLHYLRE,-0.296 ± 0.057
5,NPTTNERRVIVPADPTLWSTDHVRQWLEWAVKEYGLPDVNILLFQNIDGKELCKMTKDDFQRLTPSYNADILLSHLHYLRE,0.004 ± 0.07
6,NLTTNERRVIVPADPTLWSTDHVRQWLEWAVKEYGLPDVNILLFQNIDGKELCKMTKDDFQRLTPSYNADILLSHLHYLRE,-0.042 ± 0.053
7,NITTNERRVIVPADPTLWSTDHVRQWLEWAVKEYGLPDVNILLFQNIDGKELCKMTKDDFQRLTPSYNADILLSHLHYLRE,-0.143 ± 0.084
8,NTTTNERRVIVPADPTLWSTDHVRQWLEWAVKEYGLPDVNILLFQNIDGKELCKMTKDDFQRLTPSYNADILLSHLHYLRE,-0.033 ± 0.051
9,NFTTNERRVIVPADPTLWSTDHVRQWLEWAVKEYGLPDVNILLFQNIDGKELCKMTKDDFQRLTPSYNADILLSHLHYLRE,-0.048 ± 0.084
10,NQTTNERRVIVPADPTLWSTDHVRQWLEWAVKEYGLPDVNILLFQNIDGKELCKMTKDDFQRLTPSYNADILLSHLHYLRE,0.037 ± 0.07
11,NGTTNERRVIVPADPTLWSTDHVRQWLEWAVKEYGLPDVNILLFQNIDGKELCKMTKDDFQRLTPSYNADILLSHLHYLRE,-0.337 ± 0.044
12,NCTTNERRVIVPADPTLWSTDHVRQWLEWAVKEYGLPDVNILLFQNIDGKELCKMTKDDFQRLTPSYNADILLSHLHYLRE,-0.166 ± 0.086
13,NRTTNERRVIVPADPTLWSTDHVRQWLEWAVKEYGLPDVNILLFQNIDGKELCKMTKDDFQRLTPSYNADILLSHLHYLRE,-0.049 ± 0.037
14,NDTTNERRVIVPADPTLWSTDHVRQWLEWAVKEYGLPDVNILLFQNIDGKELCKMTKDDFQRLTPSYNADILLSHLHYLRE,-0.195 ± 0.11
15,NETTNERRVIVPADPTLWSTDHVRQWLEWAVKEYGLPDVNILLFQNIDGKELCKMTKDDFQRLTPSYNADILLSHLHYLRE,-0.213 ± 0.058
16,NHTTNERRVIVPADPTLWSTDHVRQWLEWAVKEYGLPDVNILLFQNIDGKELCKMTKDDFQRLTPSYNADILLSHLHYLRE,-0.046 ± 0.095

row,Variant,abundance fitness
1,EMTTNERRVIVPADPTLWSTDHVRQWLEWAVKEYGLPDVNILLFQNIDGKELCKMTKDDFQRLTPSYNADILLSHLHYLRE,-0.038 ± 0.12
2,GMTTNERRVIVPADPTLWSTDHVRQWLEWAVKEYGLPDVNILLFQNIDGKELCKMTKDDFQRLTPSYNADILLSHLHYLRE,-0.154 ± 0.078
3,YMTTNERRVIVPADPTLWSTDHVRQWLEWAVKEYGLPDVNILLFQNIDGKELCKMTKDDFQRLTPSYNADILLSHLHYLRE,0.029 ± 0.069
4,RMTTNERRVIVPADPTLWSTDHVRQWLEWAVKEYGLPDVNILLFQNIDGKELCKMTKDDFQRLTPSYNADILLSHLHYLRE,-0.054 ± 0.072
5,DMTTNERRVIVPADPTLWSTDHVRQWLEWAVKEYGLPDVNILLFQNIDGKELCKMTKDDFQRLTPSYNADILLSHLHYLRE,-0.071 ± 0.081
6,KMTTNERRVIVPADPTLWSTDHVRQWLEWAVKEYGLPDVNILLFQNIDGKELCKMTKDDFQRLTPSYNADILLSHLHYLRE,-0.114 ± 0.09
7,SMTTNERRVIVPADPTLWSTDHVRQWLEWAVKEYGLPDVNILLFQNIDGKELCKMTKDDFQRLTPSYNADILLSHLHYLRE,-0.097 ± 0.066
8,IMTTNERRVIVPADPTLWSTDHVRQWLEWAVKEYGLPDVNILLFQNIDGKELCKMTKDDFQRLTPSYNADILLSHLHYLRE,0.007 ± 0.081
9,WMTTNERRVIVPADPTLWSTDHVRQWLEWAVKEYGLPDVNILLFQNIDGKELCKMTKDDFQRLTPSYNADILLSHLHYLRE,-0.168 ± 0.081
10,HMTTNERRVIVPADPTLWSTDHVRQWLEWAVKEYGLPDVNILLFQNIDGKELCKMTKDDFQRLTPSYNADILLSHLHYLRE,-0.279 ± 0.085
11,CMTTNERRVIVPADPTLWSTDHVRQWLEWAVKEYGLPDVNILLFQNIDGKELCKMTKDDFQRLTPSYNADILLSHLHYLRE,-0.057 ± 0.068
12,QMTTNERRVIVPADPTLWSTDHVRQWLEWAVKEYGLPDVNILLFQNIDGKELCKMTKDDFQRLTPSYNADILLSHLHYLRE,-0.011 ± 0.17
13,TMTTNERRVIVPADPTLWSTDHVRQWLEWAVKEYGLPDVNILLFQNIDGKELCKMTKDDFQRLTPSYNADILLSHLHYLRE,0.002 ± 0.072
14,AMTTNERRVIVPADPTLWSTDHVRQWLEWAVKEYGLPDVNILLFQNIDGKELCKMTKDDFQRLTPSYNADILLSHLHYLRE,-0.144 ± 0.092
15,MMTTNERRVIVPADPTLWSTDHVRQWLEWAVKEYGLPDVNILLFQNIDGKELCKMTKDDFQRLTPSYNADILLSHLHYLRE,-0.087 ± 0.071
16,FMTTNERRVIVPADPTLWSTDHVRQWLEWAVKEYGLPDVNILLFQNIDGKELCKMTKDDFQRLTPSYNADILLSHLHYLRE,0.012 ± 0.076

# From the Human Domainome abundance scans (Beltran et al. 2025)
